For this data set the following is noted: ubiquitination at K45.

For AMBRA1: K45R, the degradation_or_half_life result is “decreases”.

The values above are taken from article PMC11475653.
